PMC8777168 (2022)

B1: STUB1, expressed from a plasmid in 293T cells [not stated] / MIF in 293T cells [not stated] (parent complex)
chain 1: MKGKEEKEGGARLGAGGGSPEKSPSAQELKEQGNRLFVGRKYPEAAACYGRAITRNPLVAVYYTNRALCYLKMQQHEQALADCRRALELDGQSVKAHFFLGQCQLEMESYDEAIANLQRAYSLAKEQRLNFGDDIPSALRIAKKKRWNSIEERRIHQESELHSYLSRLIAAERERELEECQRNHEGDEDDSHVRAQQACIEAKHDKYMADMDELFSQVDEKRKKRDIPDYLCGKISFELMREPCITPSGITYDRKDIEEHLQRVGHFDPVTRSPLTQEQLIPNLAMKEVIDAFISENGWVEDY
chain 2: PMFIVNTNVPRASVPDGFLSELTQQLAQATGKPPQYIAVHVVPDQLMAFGGSSEPCALCSLHSIGKIGGAQNRSYSKLLCGLLAERLRISPDRVYINYYDMNAANVGWNNSTFA

Variants of: B1
Assay: co-immunoprecipitation (IP: Myc, IB: MIF) and western blot, band quantification; 293T cells transfected for 24 h with STUB1 mutation plasmids; triplicate experiments, mean ± SD; read off a plot

Question: How did the response turn out when chain 1 R66A was run?
Answer: ~0.25 MIF/Input ratio

Question: With chain 1 S149A as the variant, how does the response read?
Answer: ~1 MIF/Input ratio

Question: How did the response turn out when chain 1 K143A was run?
Answer: ~0.22 MIF/Input ratio

Question: chain 1 W147A was tested. Which response did it give?
Answer: ~1 MIF/Input ratio
